# Results reported in patent publication US12485079B2, “Compositions and methods relating to pigmentation” (Alastin Skincare, Inc., priority 2020, dated 2025).
# How the values were obtained:
# [1] = tested on: melanogenic genes; experiment: Cell line melanogenic gene activity testing, overall conclusion; assay type: cell-based, human; details: conclusion over melanocytes, keratinocytes, HUVECs
# Description: (§1) Four cell types associated with pigmentation pathways-melanocytes, keratinocytes, fibroblasts and endothelial (HUVEC) cells-were analyzed for gene expression.
# (§2) To simulate the UV stimulatory pigmentation pathway process, melanocytes were pre-treated with PGE2, a normal direct consequence of UV light exposure usually emanating from exposed keratinocytes. After the 48 hour attachment culture, these melanocytes were induced with 10 uM PGE2 in melanocyte media for 24 hrs. The four primary human adult dermal cell lines were cultured and plated in well plates in triplicate and then treated with 11 different compound treatments (plus DMSO control). After 48 hours of attachment culture, the remaining fibroblasts, HUVECs and keratinocytes were treated with the test compounds listed in Table 6.
# (§3) After 24 hours of compound exposure, RNA lysate preparation was carried out and samples were shipped to MedGenome for RNA extraction, library construction and sequencing to 25M paired end 100 bp reads per sample. Library prep and sequencing was completed at MedGenome.
# [2] = tested on: hTERT-immortalized dermal melanocytes; experiment: Melanocyte assay, daily inspection of morphology and survival (Example 6); details: both 500 and 1000 ug/mL
# Description: Melanocytes were initially plated in 6-well tissue culture plate (1.5×10^3 cells per well) in melanocyte growth media (Dermal Cell Basal Medium (ATCC® PCS-200-030 supplemented with Melanocyte Growth Kit (ATCC® PCS-200-041). Melanocytes were then expanded into 10 cm tissue culture plates at concentrations recommended by ATCC. The cells appear to fully adhere to the plate/dish while culturing with a webbed morphology. Cells were cultured at 37° C. 5% CO2 incubator.
# Once the melanocytes were 100% confluent in 6-well plates, the melanocyte growth media was removed and the melanocytes were treated with media containing the above compounds; duplicate wells for each compound/concentration listed above. The duplicate vehicle control wells were fed melanocyte growth media only or melanocyte growth media with DMSO (10 uL per 10 mL melanocyte growth media).
# The cells were fed the appropriate media for the next 5 days. Each day, the cells were inspected for morphology.
# [3] = tested on: melanogenic genes in melanocytes; experiment: Gene expression study (RNA sequencing) in PGE2-induced melanocytes; assay type: cell-based, human
# Description: as §1, §2, §3
# [4] = tested on: hTERT-immortalized dermal melanocytes; experiment: Melanocyte assay, absorbance of lysate pellets (Example 6); assay type: cell-based, human; details: melanocyte lysate pellet, 5 days
# Description: hTERT-immortalized dermal melanocytes were treated with various compounds.
# Stocks of compounds 1 through 10 on the list below were suspended in either complete melanocyte growth media or DMSO (indicated in parentheses.) Each compound re-suspension was then diluted in melanocyte growth media to the final concentrations in Table 9.
# Lysates were prepared for each sample. Briefly, 6.6×10^5 cells from each sample was spun down and collected in a vial. 150 uL of CHAPS lysis buffer was added to each duplicate sample, vortexed and placed in a dry-ice/ethanol bath for 2 minutes, then left at room temp until completed thawed. This freeze thaw was done one more time, for a total of two freeze/thaw cycles. The lysate samples were spun for 15 minutes at 14,800 rpm. The supernatant was removed, leaving a black pellet in the vial. The pellet was re-suspended in 100 uL of a 1 M NaOH/10% DMSO solution and incubated at 80° C. for 90 minutes, pipet mixing at 30 minutes, 60 minutes and at 90 minutes.
# 100 uL of each duplicate sample at each concentration was added to individual wells of a flat bottom 96 well plate and absorbance readings were taken at 405 nm, 490 nm and 492 nm on the Envision 2103 Multilabel Reader.
# [5] = tested on: melanocytes (melanin production); experiment: In vitro melanocyte comparative analysis via absorbance readings (Example 4); assay type: cell-based; details: for Absorbance 405 nm / Absorbance 490 nm / Absorbance 492 nm: melanocyte lysates, 4 days
# Description: Melanocytes were cultured in 6-well plates containing growth media. Once confluent, 2 concentrations of each of the 10 compounds were added to the cells in triplicate wells for 4 days. There were a total of eleven 6-well plates, one for each compound treatment and one for the vehicle control. Absorbance readings were taken on the lysates prepared for each well of the 6-well plates, normalizing for cells counts. […] Additional validation was carried out using MSH addition to media to confirm increased stimulation of melanin production. The following compounds used in this study are seen in Table 7.
# [6] = tested on: PMEL, tyrosinase genes, MC1/4R, EDNRB, MITF, ERK1/2, JNK, AKT1; experiment: Gene expression studies of Example 5; assay type: cell-based
# From the text: The methods similar to Examples 3-4 were used to measure expression of PMEL, tyrosinase genes, MC1/4R, EDNRB, MITF, ERK1/2, JNK, and ANKT1.
# FIGS. 10A-10D illustrates the expression of PMEL (FIG. 10A), Tyrosinase genes (FIG. 10B), MC1/4R (FIG. 10C), and EDNRB (FIG. 10D) after treatment of endothelial cells with lactoferrin (Lacto), peptide derived from lactoferrin (TCV), hexapeptide-12 (Hex12), tripeptide-1 and hexapeptide-12 (TriHex), hexapeptide-11 (Hex11), tranexamic acid (Tran acid) octapeptide (Octa), phosphatidylserine (phos), Cannabidiol (CBD), and all (total).
# MITF is regulated by phosphorylation. Specifically, the MAPK and Akt pathways are known to phosphorylate MITF at certain sites. FIGS. 12A-12C illustrate the expression of ERK1/2 (MAPK3/MAPK1) (FIG. 12A), JNK (FIG. 12B), AKT1 (FIG. 12C) after treatment of endothelial cells with lactoferrin (Lacto), peptide derived from lactoferrin (TCV), hexapeptide-12 (Hex12), tripeptide-1 and hexapeptide-12 (TriHex), hexapeptide-11 (Hex11), octapeptide (Octa), phosphatidylserine (phos), Cannabidiol (CBD), and all (total).
molecule,measurement,setting,value
"Lactoferrin (protein, UniProt P02788 20-710, looked up) Lactotransferrin: GRRRSVQWCAVSQPEATKCFQWQRNMRKVRGPPVSCIKRDSPIQCIQAIAENRADAVTLDGGFIYEAGLAPYKLRPVAAEVYGTERQPRTHYYAVAVVKKGGSFQLNELQGLKSCHTGLRRTAGWNVPIGTLRPFLNWTGPPEPIEAAVARFFSASCVPGADKGQFPNLCRLCAGTGENKCAFSSQEPYFSYSGAFKCLRDGAGDVAFIRESTVFEDLSDEAERDEYELLCPDNTRKPVDKFKDCHLARVPSHAVVARSVNGKEDAIWNLLRQAQEKFGKDKSPKFQLFGSPSGQKDLLFKDSAIGFSRVPPRIDSGLYLGSGYFTAIQNLRKSEEEVAARRARVVWCAVGEQELRKCNQWSGLSEGSVTCSSASTTEDCIALVLKGEADAMSLDGGYVYTAGKCGLVPVLAENYKSQQSSDPDPNCVDRPVEGYLAVAVVRRSDTSLTWNSVKGKKSCHTAVDRTAGWNIPMGLLFNQTGSCKFDEYFSQSCAPGSDPRSNLCALCIGDEQGENKCVPNSNERYYGYTGAFRCLAENAGDVAFVKDVTVLQNTDGNNNEAWAKDLKLADFALLCLDGKRKPVTEARSCHLAMAPNHAVVSRMDKVERLKQVLLHQQAKFGRNGSDCPDKFCLFQSETKNLLFNDNTECLARLHGKTTYEKYLGPQYVAGITNLKKCSTSPLLEACEFLRK",effects on melanogenesis activity,[1],significant effects on melanogenesis activity
same,melanocyte morphology,[2]; 24 hour post-initial dosing,circular morphology
same,melanocyte morphology,"[2]; 48 hours post-initial dosing, maintained through the 5 day dosing period",returned to normal morphology
same,melanogenic activity (FIGS. 3A-3D),"[3]; melanocytes pre-treated with 10 uM PGE2, 24 hours of compound exposure",particularly dominant in melanogenic activity
same,"expression of melanogenic genes (FIG. 4, FIG. 5)","[3]; melanocytes, 24 hours of compound exposure",downregulation of melanogenic genes
same,Absorbance 405 nm,[4]; 500 ug/uL,0.509
same,Absorbance 490 nm,[4]; 500 ug/uL,0.334
same,Absorbance 492 nm,[4]; 500 ug/uL,0.217
same,Absorbance 405 nm,[4]; 1000 ug/uL,0.519
same,Absorbance 490 nm,[4]; 1000 ug/uL,0.312
same,Absorbance 492 nm,[4]; 1000 ug/uL,0.226
same,Absorbance 405 nm,[5]; 500 ug/uL,0.509
same,Absorbance 490 nm,[5]; 500 ug/uL,0.334
same,Absorbance 492 nm,[5]; 500 ug/uL,0.217
same,Absorbance 405 nm,[5]; 1000 ug/uL,0.519
same,Absorbance 490 nm,[5]; 1000 ug/uL,0.312
same,Absorbance 492 nm,[5]; 1000 ug/uL,0.226
same,regulation of melanogenesis (decrease of absorption = decreased melanin formation),"[5]; melanocytes, Table 8",Regulation of melanogenesis was observed
same,"melanogenic activity (expression of PMEL, Tyrosinase genes, MC1/4R, EDNRB; FIGS. 10A-10D)",[6]; after treatment of endothelial cells,robust melanogenic activity
same,effects on melanogenic activity (kinase expression linked to decreased MITF expression),[6]; conclusion of Example 5,significant effects
